Data set [1] concerns HeLa Kyoto. The experiment in a line: solubility change mitosis vs G1/S (difference of NP-40 vs SDS log2 ratios) (log2 ratio difference); higher = more soluble in mitosis.
The test system of data set [2] is HeLa Kyoto. The data set can be described thus: melting temperature (median over replicates), in situ; higher = more thermally stable.
For data set [3], the system named is HeLa Kyoto. The data set can be described thus: solubility in G1/S (NP-40 vs SDS abundance) (log2 ratio); higher = more soluble. As to conditions: cell cycle stage: G1/S.
Data set [4] relates to HeLa Kyoto. The experiment in a line: thermal stability score vs G1/S (z-score of summed log2 fold changes over temperatures); higher = more thermally stable than in G1/S.
Where [5] appears, read: cell cycle stage: early G1 (4.5 h after nocodazole release).
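For melting temperature (median over replicates), in situ in this document: HeLa Kyoto cells synchronized by double thymidine or nocodazole block, proteins quantified by TMT10plex mass spectrometry, three independent biological replicates.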
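For solubility change mitosis vs G1/S (difference of NP-40 vs SDS log2 ratios) in this document: synchronized HeLa Kyoto cells (double thymidine block for G1/S, nocodazole release for mitosis), protein amounts in NP-40 versus SDS lysates quantified by mass spectrometry, three biological replicates.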
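For solubility in G1/S (NP-40 vs SDS abundance) in this document: HeLa Kyoto cells arrested at G1/S by double thymidine block, proteins quantified by TMT10plex mass spectrometry in mild NP-40 versus SDS extracts, three biological replicates.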
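For thermal stability score vs G1/S (z-score of summed log2 fold changes over temperatures) in this document: synchronized HeLa Kyoto cells, proteins quantified by TMT10plex mass spectrometry, three biological replicates, mitosis taken 0.5 h after nocodazole release, G1/S directly after double thymidine block.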

As for “MLSQVYRCGFQPFNQHLLPWVKCTTVFRSHCIQPSVIRHVRSWSNIPFITVPLSRTHGKSFAHRSELKHAKRIVVKLGSAVVTRGDECGLALGRLASIVEQVSVLQNQGREMMLVTSGAVAFGKQRLRHEILLSQSVRQALHSGQNQLKEMAIPVLEARACAAAGQSGLMALYEAMFTQYSICAAQILVTNLDFHDEQKRRNLNGTLHELLRMNIVPIVNTNDAVVPPAEPNSDLQGVNVISVKDNDSLAARLAVEMKTDLLIVLSDVEGLFDSPPGSDDAKLIDIFYPGDQQSVTFGTKSRVGMGGMEAKVKAALWALQGGTSVVIANGTHPKVSGHVITDIVEGKKVGTFFSEVKPAGPTVEQQGEMARSGGRMLATLEPEQRAEIIHHLADLLTDQRDEILLANKKDLEEAEGRLAAPLLKRLSLSTSKLNSLAIGLRQIAASSQDSVGRVLRRTRIAKNLELEQVTVPIGVLLVIFESRPDCLPQVAALAIASGNGLLLKGGKEAAHSNRILHLLTQEALSIHGVKEAVQLVNTREEVEDLCRLDKMIDLIIPRGSSQLVRDIQKAAKGIPVMGHSEGICHMYVDSEASVDKVTRLVRDSKCEYPAACNALETLLIHRDLLRTPLFDQIIDMLRVEQVKIHAGPKFASYLTFSPSEVKSLRTEYGDLELCIEVVDNVQDAIDHIHKYGSSHTDVIVTEDENTAEFFLQHVDSACVFWNASTRFSDGYRFGLGAEVGISTSRIHARGPVGLEGLLTTKWLLRGKDHVVSDFSEHGSLKYLHENLPIPQRNTN [ALDH18A1]”, the “solubility change mitosis (log2)” value in data set [1] was -0.0142. The melting temperature in data set [2] (cell cycle stage: G1/S) amounted to 52.5 °C; in data set [2] (cell cycle stage: mitosis), 52.1 °C. Further, the “solubility in G1/S (log2)” value in data set [3] was -0.0382. The thermal stability score in data set [4] (setting [5]) was -0.326; in data set [4] (cell cycle stage: mitosis), -2.31.

Turning to “MLSRAVCGTSRQLAPVLGYLGSRQKHSLPDLPYDYGALEPHINAQIMQLHHSKHHAAYVNNLNVTEEKYQEALAKGDVTAQIALQPALKFNGGGHINHSIFWTNLSPNGGGEPKGELLEAIKRDFGSFDKFKEKLTAASVGVQGSGWGWLGFNKERGHLQIAACPNQDPLQGTTGLIPLLGIDVWEHAYYLQYKNVRPDYLKAIWNVINWENVTERYMACKK [SOD2]”, in data set [1], the “solubility change mitosis (log2)” value amounted to 0.133. For the same sequence, the melting temperature in data set [2] (cell cycle stage: G1/S) amounted to 58.3 °C; in data set [2] (cell cycle stage: mitosis), 56.8 °C. In addition, in data set [3], the “solubility in G1/S (log2)” value was determined as 0.614. In addition, the thermal stability score in data set [4] (setting [5]) was -0.479; in data set [4] (cell cycle stage: mitosis), -0.233.

As for “MLSSTDFTFASWELVVRVDHPNEEQQKDVTLRVSGDLHVGGVMLKLVEQINISQDWSDFALWWEQKHCWLLKTHWTLDKYGVQADAKLLFTPQHKMLRLRLPNLKMVRLRVSFSAVVFKAVSDICKILNIRRSEELSLLKPSGDYFKKKKKKDKNNKEPIIEDILNLESSPTASGSSVSPGLYSKTMTPIYDPINGTPASSTMTWFSDSPLTEQNCSILAFSQPPQSPEALADMYQPRSLVDKAKLNAGWLDSSRSLMEQGIQEDEQLLLRFKYYSFFDLNPKYDAVRINQLYEQARWAILLEEIDCTEEEMLIFAALQYHISKLSLSAETQDFAGESEVDEIEAALSNLEVTLEGGKADSLLEDITDIPKLADNLKLFRPKKLLPKAFKQYWFIFKDTSIAYFKNKELEQGEPLEKLNLRGCEVVPDVNVAGRKFGIKLLIPVADGMNEMYLRCDHENQYAQWMAACMLASKGKTMADSSYQPEVLNILSFLRMKNRNSASQVASSLENMDMNPECFVSPRCAKRHKSKQLAARILEAHQNVAQMPLVEAKLRFIQAWQSLPEFGLTYYLVRFKGSKKDDILGVSYNRLIKIDAATGIPVTTWRFTNIKQWNVNWETRQVVIEFDQNVFTAFTCLSADCKIVHEYIGGYIFLSTRSKDQNETLDEDLFHKLTGGQD [FERMT1]”, the “solubility change mitosis (log2)” value in data set [1] was -0.199. In addition, the melting temperature is 50.2 °C in data set [2] (cell cycle stage: G1/S) and 49.8 °C in data set [2] (cell cycle stage: mitosis). In data set [3], the “solubility in G1/S (log2)” value was -0.0778. The thermal stability score in data set [4] (setting [5]) was -0.277; in data set [4] (cell cycle stage: mitosis), -0.501.

As to “MLTNLRIFAMSHQTIPSVYINNICCYKIRASLKRLKPHVPLGRNCSSLPGLIGNDIKSLHSIINPPIAKIRNIGIMAHIDAGKTTTTERILYYSGYTRSLGDVDDGDTVTDFMAQERERGITIQSAAVTFDWKGYRVNLIDTPGHVDFTLEVERCLRVLDGAVAVFDASAGVEAQTLTVWRQADKHNIPRICFLNKMDKTGASFKYAVESIREKLKAKPLLLQLPIGEAKTFKGVVDVVMKEKLLWNCNSNDGKDFERKPLLEMNDPELLKETTEARNALIEQVADLDDEFADLVLEEFSENFDLLPAEKLQTAIHRVTLAQTAVPVLCGSALKNKGIQPLLDAVTMYLPSPEERNYEFLQWYKDDLCALAFKVLHDKQRGPLVFMRIYSGTIKPQLAIHNINGNCTERISRLLLPFADQHVEIPSLTAGNIALTVGLKHTATGDTIVSSKSSALAAARRAEREGEKKHRQNNEAERLLLAGVEIPEPVFFCTIEPPSLSKQPDLEHALKCLQREDPSLKVRLDPDSGQTVLCGMGELHIEIIHDRIKREYGLETYLGPLQVAYRETILNSVRATDTLDRTLGDKRHLVTVEVEARPIETSSVMPVIEFEYAESINEGLLKVSQEAIENGIHSACLQGPLLGSPIQDVAITLHSLTIHPGTSTTMISACVSRCVQKALKKADKQVLEPLMNLEVTVARDYLSPVLADLAQRRGNIQEIQTRQDNKVVIGFVPLAEIMGYSTVLRTLTSGSATFALELSTYQAMNPQDQNTLLNRRSGLT [GFM2]”, the “solubility change mitosis (log2)” value in data set [1] is -0.0596. In addition, the melting temperature in data set [2] (cell cycle stage: G1/S) came out at 49.2 °C; in data set [2] (cell cycle stage: mitosis), 49.3 °C. In data set [3], the “solubility in G1/S (log2)” value is -0.0849. In addition, the values for the thermal stability score in data set [4] (setting [5]) and in data set [4] (cell cycle stage: mitosis) were 1.87 and 1.26, respectively.

On to “MLTRVKSAVANFMGGIMAGSSGSEHGGGSCGGSDLPLRFPYGRPEFLGLSQDEVECSADHIARPILILKETRRLPWATGYAEVINAGKSTHNEDQASCEVLTVKKKAGAVTSTPNRNSSKRRSSLPNGEGLQLKENSESEGVSCHYWSLFDGHAGSGAAVVASRLLQHHITEQLQDIVDILKNSAVLPPTCLGEEPENTPANSRTLTRAASLRGGVGAPGSPSTPPTRFFTEKKIPHECLVIGALESAFKEMDLQIERERSSYNISGGCTALIVICLLGKLYVANAGDSRAIIIRNGEIIPMSSEFTPETERQRLQYLAFMQPHLLGNEFTHLEFPRRVQRKELGKKMLYRDFNMTGWAYKTIEDEDLKFPLIYGEGKKARVMATIGVTRGLGDHDLKVHDSNIYIKPFLSSAPEVRIYDLSKYDHGSDDVLILATDGLWDVLSNEEVAEAITQFLPNCDPDDPHRYTLAAQDLVMRARGVLKDRGWRISNDRLGSGDDISVYVIPLIHGNKLS [PPM1H]”, for which the “solubility change mitosis (log2)” value in data set [1] is 0.221. Also, the melting temperature was found to be 55.9 °C in data set [2] (cell cycle stage: G1/S) and 56.9 °C in data set [2] (cell cycle stage: mitosis). In data set [3], the “solubility in G1/S (log2)” value worked out at 0.29. Moreover, the figures for the thermal stability score in data set [4] (setting [5]) and in data set [4] (cell cycle stage: mitosis) were -2.63 and -1.3, respectively.

Turning to “MLWPRLAAAEWAALAWELLGASVLLIAVRWLVRRLGPRPGGLGRSGTPVPPPSAAAAPASGEMTMDALLARLKLLNPDDLREEIVKAGLKCGPITSTTRFIFEKKLAQALLEQGGRLSSFYHHEAGVTALSQDPQRILKPAEGNPTDQAGFSEDRDFGYSVGLNPPEEEAVTSKTCSVPPSDTDTYRAGATASKEPPLYYGVCPVYEDVPARNERIYVYENKKEALQAVKMIKGSRFKAFSTREDAEKFARGICDYFPSPSKTSLPLSPVKTAPLFSNDRLKDGLCLSESETVNKERANSYKNPRTQDLTAKLRKAVEKGEEDTFSDLIWSNPRYLIGSGDNPTIVQEGCRYNVMHVAAKENQASICQLTLDVLENPDFMRLMYPDDDEAMLQKRIRYVVDLYLNTPDKMGYDTPLHFACKFGNADVVNVLSSHHLIVKNSRNKYDKTPEDVICERSKNKSVELKERIREYLKGHYYVPLLRAEETSSPVIGELWSPDQTAEASHVSRYGGSPRDPVLTLRAFAGPLSPAKAEDFRKLWKTPPREKAGFLHHVKKSDPERGFERVGRELAHELGYPWVEYWEFLGCFVDLSSQEGLQRLEEYLTQQEIGKKAQQETGEREASCRDKATTSGSNSISVRAFLDEDDMSLEEIKNRQNAARNNSPPTVGAFGHTRCSAFPLEQEADLIEAAEPGGPHSSRNGLCHPLNHSRTLAGKRPKAPRGEEAHLPPVSDLTVEFDKLNLQNIGRSVSKTPDESTKTKDQILTSRINAVERDLLEPSPADQLGNGHRRTESEMSARIAKMSLSPSSPRHEDQLEVTREPARRLFLFGEEPSKLDQDVLAALECADVDPHQFPAVHRWKSAVLCYSPSDRQSWPSPAVKGRFKSQLPDLSGPHSYSPGRNSVAGSNPAKPGLGSPGRYSPVHGSQLRRMARLAELAAL [ANKLE2]”, the “solubility change mitosis (log2)” value in data set [1] is 0.146. The melting temperature was 47.5 °C in data set [2] (cell cycle stage: G1/S) and 48.1 °C in data set [2] (cell cycle stage: mitosis). The “solubility in G1/S (log2)” value in data set [3] is 0.122. In addition, the thermal stability score in data set [4] (setting [5]) amounted to 2.02; in data set [4] (cell cycle stage: mitosis) it was 3.19.

(Values after the supplement of paper PMC5998384.)
